From PMC6544042, “Switching the Post-translational Modification of Translation Elongation Factor EF-P” (Frontiers in Microbiology, 2019)

Substrate: Cc1cn([C@H]2C[C@H](O)[C@@H](COP(=O)(O)OP(=O)(O)O[C@H]3O[C@@H](C)[C@H](O)[C@@H](O)[C@H]3O)O2)c(=O)[nH]c1=O
Assay: anti-rhamnosylarginine Western blot, band intensity, Michaelis-Menten fit
Assay type: biochemical, Pseudomonas putida
Settings: 2.5 μM unmodified EF-P of P. putida as acceptor, 0.1 μM EarP, 100 mM sodium phosphate pH 7.6, 30 °C, 20 s, commercial TDP-Rha

B1: EarPPpu (Pseudomonas putida KT2440) (protein)
chain: MKATWDIFCSVVDNYGDIGVTWRLARQLVAEHGLAVRLWVDDLNAFTPMCPGADATAAQQWQHGVDVRHWPAAWLPVAPADVVIGAFACQLPAAYVEAMRARPQPPLWLNLEYLSAEDWVEGCHGLPSPQPNGLRKVFFFPGFTDKTGGLLREGSLLARRDGFQQSAEARRAFLQGLGVDLVPGALLISLFAYENPQLGNWLDALATADQPCHLLVPQGRVVAGLSQWLGEGPLHVGDVRTRGALTVQVLPFVSQDDFDRLLWSCDFNAVRGEDSFVRAQWAGQPMLWHIYVQDENAHWEKLEAFLAHYRCGLSDDADAALLGLWRAWNMDFDMGQAWRAARQHWPELQQHARLWGARQAAQPDLATALVHFYRNSL
notes: C-terminal His6 tag kept; pBAD33-earPPpu, E. coli LMG194 host, Ni-NTA purified; GT-B fold, GT104 family
With B1 the Km was 5 µM.
